Source: publication PMC6686729, “RGD conjugated cell uptake off to on responsive NIR-AZA fluorophores: applications toward intraoperative fluorescence guided surgery” (Chemical Science, 2019)

How the values were obtained:
[1] = pH titration of fluorescence intensity, sigmoidal plot fit (pKa); format: physicochemical
Description: In order to display the responsive nature and full emissive potential of 2 and 3, their DMEM solutions were sequentially acidified (Fig. 4a and b). This caused a successive increase in emission intensity as acidity increased, with a maximum intensity reached at approximately pH 4. […] While it is recognized that the extracellular matrix of a solid tumour can be more acidic than normal tissue, intracellular organelles such as late endosomes and lysosomes are also acidic ranging between pH 4.5 and 5.5.[27] Encouragingly, the measured fluorescence enhancement factor (FEF) for 2 and 3 between pH 7.2 and that of 4.5 (as found in lysosomes) was 23 and 18 respectively (Fig. 4c). […]
Fig. 4 Responsive emission characteristics of 2 and 3 (5 μM) in DMEM/10% FBS solutions containing TX100. (a) Fluorescence spectra of 2 at pH ranging from 8.0 (black) to 2.0 (red); inset sigmoidal plot fit of integrated fluorescence intensity versus pH. (b) Fluorescence spectra of 3 at pH ranging from 8.0 (black) to 2.0 (red); inset sigmoidal plot fit of integrated fluorescence intensity versus pH. […]
Fig. S1. Absorption and fluorescence pH titration of 1
Fig. S1 Absorbance (left) and fluorescence (right) spectra of 1 (5 μM) in PBS buffer/TX-100 (4 mM) starting at pH 8 (grey line) to pH 2 (red line). Fluorescence excitation: 630 nm; range: 650- 900 nm; […]
(§1) Fig. S2. Absorption pH titration and fluorescence spectra of 2 […]

[2] = Photophysical properties (absorption, emission, FEF, quantum yield) in DMEM/10% FBS; format: physicochemical
Description: The photophysical properties of the bio-responsive fluorophores 2 and 3 and the always-on control 10 were studied in solutions of Dulbecco's modified eagle's cell medium (DMEM) containing 10% fetal bovine serum (FBS). Absorption and emission wavelengths are listed in Table 1 and are, as would be expected for the NIR-AZA class, in the 690–730 nm range. At pH 7.4 fluorescence intensity of always-on10 was 17- and 15-fold greater than 2 and 3 respectively (Table 1). This illustrates both the emissive potential of the peptide conjugates and the ability to quench the bio-responsive derivatives in relevant biological media (Table 1, spectra and inset). […]
as §1
Fig. S2 Absorbance (left) spectra of 2 (5 μM) in DMEM (10% FBS) /TX100 (4 mM) starting at pH 8 (grey line) to pH 3 (red line). Fluorescence (right) spectra of series dilution (3 µM, 1.8 µM, 1.3 µM, 0.5 µM) in DMEM (10% FBS) /TX100 (4 mM) at pH=3. Fluorescence excitation: 630 nm; range: 650- 900 nm; slit widths: 5/5. Inset: Integrated fluorescence intensity vs. Absorbance; calculated fluorescence quantum yield Φ = 0.16. […]
Fig. S3. Absorption pH titration and fluorescence spectra of 3 […]
Fig. S3 Absorbance (left) spectra of 3 (5 μM) in DMEM (10% FBS) /TX100 (4 mM) starting at pH 8 (grey line) to pH 3 (red line). Fluorescence (right) spectra of series dilution (3.5 µM, 2.6 µM, 1.3 µM, 0.8 µM) in DMEM (10% FBS) /TX100 (4 mM) at pH=3. Fluorescence excitation: 630 nm; range: 650- 900 nm; slit widths: 5/5. Inset: Integrated fluorescence intensity vs. Absorbance; calculated fluorescence quantum yield Φ = 0.18.
Fig. S4. Absorption and fluorescence spectra of 10 at pH 7.4, 6.6, 5.6 and 3.
Fig. S4 Absorbance (left) and fluorescence (right) spectra of 10 (5 μM) in DMEM (10% FBS) /TX100 (4 mM). Fluorescence excitation: 630 nm; range: 650- 900 nm; slit widths: 5/5.

MDA-MB 231 cells = experiment: Live MDA-MB 231 cell NIR-fluorescence/DIC time-lapse imaging; format: cell-based, human; conditions: live MDA-MB 231 cells, 1–5 μM, 37 °C
Procedure: With the responsive nature of 2 and 3 established, the potential for translation of these constructs to real-time live cell imaging was investigated. In order to illustrate the imaging effect of the bio-responsive characteristics of 2 and 3 the always-on10 was also imaged as a positive control. For live MDA-MB 231 cell experiments, chamber slide seeded cells were placed in a widefield microscope surrounded by an incubator to maintain the temperature at 37 °C and CO2 at 5%, following which an imaging field of view containing viable cells was chosen. The cells were treated with either 2, 3 or 10 (1–5 μM) and time-lapse NIR-fluorescence and differential interference contrast (DIC) images were acquired over 120 min. […] As expected, the […] morphology of the cell line is distinguishable by its membrane filopodia projections which is characteristic of its metastatic invasive phenotype (Movie S1 ^†). After 60 min incubation, both cell membrane and intracellular vesicle staining of the cytoplasm could be observed, both of which persisted at 120 min (Fig. 5b and c). […]
Fluorescence and DIC images were acquired on an Olympus IX73 epi-fluorescent microscope fitted with an Andor iXon Ultra 888 EMCCD and controlled by MetaMorph (v7.8). Fluorescence illumination was provided by a Lumencor Spectra X light engine containing a solid-state light source. […]

[3] = tested on: MDA-MB 231 subcutaneous tumour; experiment: In vivo tumour fluorescence imaging, tumour-to-background ratio (TBR) over 96 h; parameters: species or system Balb/C nu/nu mice; conditions: 2 mg kg–1, n = 4 (n = 2 for 10)
Procedure: Each fluorophore was subjected to in vivo analysis using a standard dosing set at 2 mg kg^–1 delivered by i.v. tail vein injection. Post injection, images were acquired initially at regular intervals between 10 min and 9 h and thereafter less frequently at 24, 48 and 96 h. The method used for image analysis was consistent across all experiments with TBR values calculated by measuring tumour ROI fluorescence against an average of three equally sized background ROI regions, two of which were close to and one distant from the tumour (Fig. S11 ^†). […] As such, we adopted this value as a point of reference to compare result from different fluorophores and different time points for individual fluorophores. […]
All in vivo experiments were conducted in University College Dublin, Ireland in compliance with relevant laws, and their institutional guidelines for animal protocols and the guidelines issued b y the Ethical Committee of University College Dublin and under license from the Health Products Regulatory Authority (HPRA), Dublin, Ireland which approved the experiments.
All in vivo work was carried out in the biomedical facility, University College Dublin (UCD) . MDA-MB-231, a human breast adenocarcinoma cell line, was obtained from Caliper Life Sciences. Cells were maintained as a mono-layer culture in Minimum Essential Medium containing 10% (v/v) fetal bovine serum and supplemented with 1% (v/v) L–glutamine, 50 U/mL penicillin, […] streptomycin, 1% (v/v) sodium pyruvate and 1% (v/v) non-essential amino acids. All cells were maintained in 5% CO2 (v/v) and 21% O2 (v/v) at 37°C.
Balb/C nu/nu mice (Harlan) were housed in individually ventilated cages in temperature and humidity-controlled rooms with a 12 hours light dark cycle. 2-5 Million MDA-MB 231 cells in 100 μL of a DPBS:Matrigel (50:50) solution were injected subcutaneously behind the fore limb of the 5-week-old mice using a 25-g needle. Tumors reached an average diameter of 6 mm prior to imaging […]
images taken at early time points with less frequent imaging thereafter. Images were taken using the settings of excitation 675 nm (30 nm band pass filter) and emission 720 nm (20 nm band pass filter) narrow band pass filters and were analyzed using Living Image Software v4.7.2 (Caliper LS). The tumor-to-background ratio (TBR) was calculated by using the measured fluorescence signal in the ROIs of tumor target and average background. […]
The fluorescence intensity of the animal was measured and normalized to photons per second per centimeter squared per steradian per micro-Watt per centimeter squared [(p/sec/cm2/sr) /(μW/cm2)].
Mice were injected via tail vein (2 mg/kg) as follows; [n = 4 for 1 (3.7 nmol)], [n = 4 for 2 (13.2 nmol)], [n = 4 for 3 (10.5 nmol)], [n = 2 for 10 (10.1 nmol)], anesthetized, and imaged at various time points post injection. All fluorescence images were acquired with two second exposure (f/stop = 2).
Color scale was adjusted and kept same for each experiment to show good contrast of target tumor region to background over time. The fluorescence intensity was not affected by color scale adjusting. […]
For RGD competitive binding study, mice injected with 2 (13.2 nmol) with or without pre-injection with RDG 5 (89.5 nmol) and were imaged at 10 min interval for 3 hours, and then immediately euthanized by inhalation of carbon dioxide. For quantitative comparison, regions of interests (ROIs) […]

Row | Compound | pKa [1] | absorption or emission spectral changes between pH 7.2 and 4.5 ([2]; 5 μM in DMEM (10% FBS)/TX100 (4 mM)) | λ max flu (nm) ([2]; DMEM/10% FBS with 4 mM TX-100, 5 μM) | FEF pH 7.4/4.5 (fluorescence enhancement factor) ([2]; DMEM/10% FBS with 4 mM TX-100, 5 μM, pH 7.4 vs 4.5) | λ max abs (nm) pH 4.5 ([2]; DMEM/10% FBS with 4 mM TX-100, pH 4.5) [nm] | λ max abs (nm) pH 7.2 ([2]; DMEM/10% FBS with 4 mM TX-100, pH 7.2) [nm] | fluorescence intensity of always-on 10 relative to 2 ([2]; pH 7.4, DMEM/10% FBS, 5 μM) [fold] | fluorescence intensity of always-on 10 relative to 3 ([2]; pH 7.4, DMEM/10% FBS, 5 μM) [fold] | cell staining pattern over 120 min (MDA-MB 231 cells; 5% CO2, time-lapse over 120 min) | cell staining in the first 15 min of incubation (MDA-MB 231 cells; 5% CO2, widefield NIR-fluorescence and DIC) | TBR ([3]; 10 to 60 min (first 60 min) post i.v. tail vein injection) | TBR ([3]; 3 h post i.v. injection) | TBR ([3]; 6 h post i.v. injection) | TBR ([3]; 24 h post i.v. injection) | TBR ([3]; 48 h post i.v. injection)
1 | N=C(N)NCCC[C@@H]1NC(=O)[C@H](CCCCNC(=O)COCCOCCNC(=O)COCCOCCNC(=O)COc2ccc(-c3cc(-c4ccccc4)c4n3[B-](F)(F)[N+]3=C(c5ccc(O)c([N+](=O)[O-])c5)C=C(c5ccccc5)C3=N4)cc2)NC(=O)[C@@H](Cc2ccccc2)NC(=O)[C@H](CC(=O)O)NC(=O)CNC1=O [compound 2] | 4.9 | – | – | – | – | – | – | – | – | – | – | – | – | – | –
2 | CC(=O)N[C@@H](CSC1CC(=O)N(CCC(=O)NCCOc2ccc(-c3cc(-c4ccccc4)c4n3[B-](F)(F)[N+]3=C(c5ccc(O)c([N+](=O)[O-])c5)C=C(c5ccccc5)C3=N4)cc2)C1=O)C(=O)NCCCC[C@@H]1NC(=O)[C@H](CC(=O)O)NC(=O)CNC(=O)[C@H](CCCNC(=N)N)NC(=O)[C@@H](NC(C)=O)CSSC[C@@H](C(N)=O)NC(=O)[C@H](CC(=O)O)NC(=O)[C@@H]2CCCN2C(=O)CNC1=O (stereo partly shown) [compound 3] | 4.9 | – | – | – | – | – | – | – | – | – | – | – | – | – | –
3 | cCRGDKGPDC (disulfide) [compound 10, iRGD conjugated always-on NIR-AZA control with alkylsulfonic acid group, from fluorochrome 9 and peptide 8] | – | no absorption or emission spectral changes | 733 | 1.0 | 703 | 705 | 17 | 15 | first showed plasma membrane before internal organelle staining | fluorescence specific to the plasma membrane | below 1.3 | 1.5 | 1.9 | above 2 | 2
